These results are taken from article PMC9000958, “Sticks and Stones, a conserved cell surface ligand for the Type IIa RPTP Lar, regulates neural circuit wiring in Drosophila” (eLife, 2022).

Test [1] has as its target Sticks and Stones (Sns), ectopically expressed in Tub>Sns embryos (Drosophila). As to the kind of experiment: immunostaining of cells or tissue; live-dissected stage 16 embryos (WT or Tub-GAL4 overexpression) incubated 2 hr at room temperature with AP or AP5 fusion protein supernatants (1x or concentrated), fixed in 4% paraformaldehyde, detected with anti-AP antibody; staining intensity compared with WT embryos.

The target in test [2] is Nephrin or Sns (expressed in Tub>NPHS1 or Tub>Sns embryos). The test is described as above.
In test [3] the target is Lar-Fc fusion protein (Drosophila) (UniProt P16621). Put plainly: ELISA; ECIA: Fc fusion bait (1x supernatant) captured by anti-human IgG (Fc-specific) on plate; AP5 fusion prey (1x supernatant) pre-clustered with anti-AP:biotin, overnight at room temperature; streptavidin:HRP, TMB, absorbance at 450 nm. (In general: In an ELISA, binding on a coated surface is turned into a signal by an enzyme label.)

The target in test [4] is Lar, ectopically expressed in Tub>Lar embryos (Drosophila) (UniProt P16621). As to the kind of experiment: immunostaining of cells or tissue; live-dissected stage 16 embryos (WT or Tub-GAL4 overexpression) incubated 2 hr at room temperature with AP or AP5 fusion protein supernatants (1x or concentrated), fixed in 4% paraformaldehyde, detected with anti-AP antibody; staining intensity compared with WT embryos.

In test [5] the target is T1, human Nephrin, ectopically expressed in Tub>NPHS1 embryos (human, UniProt O60500 23-1241).
T1 construct: source: Drosophila embryos, UAS-linked full-length human Nephrin cDNA driven by Tub-GAL4, live-dissected stage 16
T1 sequence (looked up): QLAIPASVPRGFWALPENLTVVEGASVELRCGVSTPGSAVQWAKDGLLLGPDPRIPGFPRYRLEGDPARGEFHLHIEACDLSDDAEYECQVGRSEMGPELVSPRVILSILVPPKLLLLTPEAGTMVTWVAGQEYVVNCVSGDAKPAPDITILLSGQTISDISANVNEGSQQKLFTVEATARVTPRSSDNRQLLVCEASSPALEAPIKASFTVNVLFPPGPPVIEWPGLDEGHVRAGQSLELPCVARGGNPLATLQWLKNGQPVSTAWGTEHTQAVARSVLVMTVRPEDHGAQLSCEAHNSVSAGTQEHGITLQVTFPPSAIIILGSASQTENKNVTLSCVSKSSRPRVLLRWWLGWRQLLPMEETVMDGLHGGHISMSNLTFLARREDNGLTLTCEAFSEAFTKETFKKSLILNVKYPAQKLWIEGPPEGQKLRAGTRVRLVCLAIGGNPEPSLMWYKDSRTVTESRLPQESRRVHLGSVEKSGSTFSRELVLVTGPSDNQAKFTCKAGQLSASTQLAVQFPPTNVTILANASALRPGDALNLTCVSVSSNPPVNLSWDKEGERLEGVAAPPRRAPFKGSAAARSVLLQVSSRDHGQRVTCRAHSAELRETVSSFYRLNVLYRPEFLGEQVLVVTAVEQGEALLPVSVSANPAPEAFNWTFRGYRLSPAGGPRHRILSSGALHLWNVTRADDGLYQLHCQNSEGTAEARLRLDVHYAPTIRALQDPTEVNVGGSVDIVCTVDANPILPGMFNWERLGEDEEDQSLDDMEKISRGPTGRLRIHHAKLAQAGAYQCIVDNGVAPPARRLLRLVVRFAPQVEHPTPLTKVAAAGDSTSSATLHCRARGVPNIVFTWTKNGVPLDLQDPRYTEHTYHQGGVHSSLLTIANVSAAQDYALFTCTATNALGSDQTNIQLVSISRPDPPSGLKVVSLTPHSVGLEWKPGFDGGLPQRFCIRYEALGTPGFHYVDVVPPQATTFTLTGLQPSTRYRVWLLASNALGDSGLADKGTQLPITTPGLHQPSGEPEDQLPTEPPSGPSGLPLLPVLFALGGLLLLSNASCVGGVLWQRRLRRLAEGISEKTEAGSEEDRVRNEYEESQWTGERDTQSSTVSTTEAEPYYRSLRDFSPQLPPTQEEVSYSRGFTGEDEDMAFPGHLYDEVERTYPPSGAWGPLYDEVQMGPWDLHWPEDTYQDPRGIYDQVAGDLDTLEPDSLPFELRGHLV
The test is described as above. As to conditions: partners not purified.

Test [6] concerns the target Sns-AP5 fusion protein (Drosophila). As to the kind of experiment: ELISA; ECIA with mi3 particles: AP5 bait (10 ng/ul) on streptavidin-coated plate; mi3 particles or Fc fusion proteins as prey at 10 ng/ul or 1x, overnight at room temperature; detected with anti-LAR or anti-human IgG (Fc) and anti-mouse:AP, BluePhos, absorbance at 650 nm; mi3 preys were purified, purification of bait not told.

Turning to “Lar^HS2-alkaline phosphatase fusion protein (from UniProt P16621 33-1377) (domain or fragment)”, the fold increase in staining vs. WT embryos in test [1] was > 10 fold.

In test [2], “PTPRF-AP5 fusion protein (from UniProt P10586 30-1263) (domain or fragment)” yielded a fold increase in staining vs. WT embryos of 18 to 20 fold.

The molecule “Sns-AP5 fusion protein (domain or fragment)” displayed a fold higher binding signal in test [3] of 3 fold. This molecule also showed a fold increase in staining vs. WT embryos in test [4] of 3 fold.

B1: PTPRD-AP5 fusion protein (domain or fragment, human, UniProt P23468 21-1265, looked up)
chain: ETPPRFTRTPVDQTGVSGGVASFICQATGDPRPKIVWNKKGKKVSNQRFEVIEFDDGSGSVLRIQPLRTPRDEAIYECVASNNVGEISVSTRLTVLREDQIPRGFPTIDMGPQLKVVERTRTATMLCAASGNPDPEITWFKDFLPVDTSNNNGRIKQLRSESIGGTPIRGALQIEQSEESDQGKYECVATNSAGTRYSAPANLYVRELREVRRVPPRFSIPPTNHEIMPGGSVNITCVAVGSPMPYVKWMLGAEDLTPEDDMPIGRNVLELNDVRQSANYTCVAMSTLGVIEAIAQITVKALPKPPGTPVVTESTATSITLTWDSGNPEPVSYYIIQHKPKNSEELYKEIDGVATTRYSVAGLSPYSDYEFRVVAVNNIGRGPPSEPVLTQTSEQAPSSAPRDVQARMLSSTTILVQWKEPEEPNGQIQGYRVYYTMDPTQHVNNWMKHNVADSQITTIGNLVPQKTYSVKVLAFTSIGDGPLSSDIQVITQTGVPGQPLNFKAEPESETSILLSWTPPRSDTIANYELVYKDGEHGEEQRITIEPGTSYRLQGLKPNSLYYFRLAARSPQGLGASTAEISARTMQSKPSAPPQDISCTSPSSTSILVSWQPPPVEKQNGIITEYSIKYTAVDGEDDKPHEILGIPSDTTKYLLEQLEKWTEYRITVTAHTDVGPGPESLSVLIRTNEDVPSGPPRKVEVEAVNSTSVKVSWRSPVPNKQHGQIRGYQVHYVRMENGEPKGQPMLKDVMLADAQWEFDDTTEHDMIISGLQPETSYSLTVTAYTTKGDGARSKPKLVSTTGAVPGKPRLVINHTQMNTALIQWHPPVDTFGPLQGYRLKFGRKDMEPLTTLEFSEKEDHFTATDIHKGASYVFRLSARNKVGFGEEMVKEISIPEEVPTGFPQNLHSEGTTSTSVQLSWQPPVLAERNGIITKYTLLYRDINIPLLPMEQLIVPADTTMTLTGLKPDTTYDVKVRAHTSKGPGPYSPSVQFRTLPVDQVFAKNFHVKAVMKTSVLLSWEIPENYNSAMPFKILYDDGKMVEEVDGRATQKLIVNLKPEKSYSFVLTNRGNSAGGLQHRVTAKTAPDVLRTKPAFIGKTNLDGMITVQLPEVPANENIKGYYIIIVPLKKSRGKFIKPWESPDEMELDELLKEISRKRRSIRYGREVELKPYIAAHFDVLPTEFTLGDDKHYGGFTNKQLQSGQEYVFFVLAVMEHAESKMYATSPYSDPVVSMDLDPQPITDEEE
notes: human PTPRD extracellular domain, amplified from a full-length cDNA; also called PTPδ; source: Drosophila S2 cells, transfected, supernatant
Take B1: the “fold increase in staining vs. WT embryos” value in test [5] came out at 3 fold.

B2: 60-mer Lar particles on the mi3 nanoparticle scaffold (Fc fusion)
chain: AHPPEIIRKPQNQGVRVGGVASFYCAARGDPPPSIVWRKNGKKVSGTQSRYTVLEQPGGISILRIEPVRAGRDDAPYECVAENGVGDAVSADATLTIYEGDKTPAGFPVITQGPGTRVIEVGHTVLMTCKAIGNPTPNIYWIKNQTKVDMSNPRYSLKDGFLQIENSREEDQGKYECVAENSMGTEHSKATNLYVKVRRVPPTFSRPPETISEVMLGSNLNLSCIAVGSPMPHVKWMKGSEDLTPENEMPIGRNVLQLINIQESANYTCIAASTLGQIDSVSVVKVQSLPTAPTDVQISEVTATSVRLEWSYKGPEDLQYYVIQYKPKNANQAFSEISGIITMYYVVRALSPYTEYEFYVIAVNNIGRGPPSAPATCTTGETKMESAPRNVQVRTLSSSTMVITWEPPETPNGQVTGYKVYYTTNSNQPEASWNSQMVDNSELTTVSELTPHAIYTVRVQAYTSMGAGPMSTPVQVKAQQGVPSQPSNFRATDIGETAVTLQWTKPTHSSENIVHYELYWNDTYANQAHHKRISNSEAYTLDGLYPDTLYYIWLAARSQRGEGATTPPIPVRTKQYVPGAPPRNITAIATSSTTISLSWLPPPVERSNGRIIYYKVFFVEVGREDDEATTMTLNMTSIVLDELKRWTEYKIWVLAGTSVGDGPRSHPIILRTQEDVPGDPQDVKATPLNSTSIHVSWKPPLEKDRNGIIRGYHIHAQELRDEGKGFLNEPFKFDVVDTLEFNVTGLQPDTKYSIQVAALTRKGDGDRSAAIVVKTPGGVPVRPTVSLKIMEREPIVSIELEWERPAQTYGELRGYRLRWGVKDQALKEEMLSGPQMTKKRFDNLERGVEYEFRVAGSNHIGIGQETVKIFQTPEGTPGGPPSNITIRFQTPDVLCVTWDPPTREHRNGIITRYDVQFHKKIDHGLGSERNMTLRKAVFTNLEENTEYIFRVRAYTKQGAGPFSDKLIVETERDMGRAPMSLQAEATSEQTAEIWWEPVTSRGKLLGYKIFYTMTAVEDLDDWQTKTVGLTESADLVNLEKFAQYAVAIAARFKNGLGRLSEKVTVRIKPEDVPLNLRAHDVSTHSMTLSWSPPIRLTPVNYKISFDAMKVFVDSQGFSQTQIVPKREIILKHYVKTHTINELSPFTTYNVNVSAIPSDYSYRPPTKITVTTQMAAPQPMVKPDFYGVVNGEEILVILPQASEEYGPISHYYLVVVPEDKSNLHKIPDQFLTDDLLPGRNKPERPNAPYIAAKFPQRSIPFTFHLGSGDDYHNFTNRKLEREKRYRIFVRAVVDTPQKHLYTSSPFSEFLSLDMREAPPGERPHRPDPNWPAEPEVSVNRNKDEPE
In test [6], B2 returned a fold increase in binding signal of 7 fold and a fold weaker binding signal than Kirre on Sns-AP5 of 2 fold.
